Assays:
[1] = biological target: DICER;ARGONAUTE2 (AGO2) (human;human) (UniProt Q9UPY3+Q9UKV8); assay: competition (fluorogenic siRNA processing); conditions: 80 nM BoPsi664, 30 nM each enzyme; Assay Buffer with 1 mM free Mg2+ (full composition not in the material), 37 C; indirect read-out by competitive inhibition of fluorogenic siRNA processing, no …
DICER (human) = DICER (human) (UniProt Q9UPY3)

K d,app from a Morrison-equation fit of enzymatic activity: DICER (25 nM) titrated with AGO2, fluorogenic DICER substrate BoGD664 (250 nM), 37°C (DICER (human)) | K d,app from a Morrison-equation fit of enzymatic activity: DICER (25 nM) titrated with AGO2, fluorogenic DICER substrate BoPD664 (250 nM), 37°C (DICER (human)) | molar ratio AGO2:DICER at which enzymatic activity on DICER substrates stops rising (titration of DICER, 25 nM, with AGO2) (molar ratio AGO2:DICER) (DICER (human)) | Substance | IC50 [1]
– | – | – | AllStars Negative Control siRNA | 209 nM
2.2 nM | 0.54 nM | 1 | ARGONAUTE2 (from UniProt Q9UKV8 1-859) (enzyme) | –

From article PMC4368098
